Common to all, as to type: cell-based, Saccharomyces cerevisiae
For one data set, the system named is nandinine. The experiment in a line: CYP719 Ring B closure of nandinine to stylopine in GC1333. The method, then: (§1) FIG. 11A-B: showing conversion of (S)-cheilanthifoline (FIG. 11A) or (S)-nandinine (FIG. 11B) to (S)-stylopine by purchased CYP719s. Plasmids harboring CYP719s were transformed into GC1333 containing an integrated PsCPR. Strains were incubated with the appropriate BIA overnight, and then total BIAs were extracted and total molar ratios were compared. PsSPSΔN was used as a control.
(§2) The 10 CYP719s with 95% activity on Ring A of scoulerine and the 10 CYP719s with activity on Ring B of scoulerine were tested for activity on cheilanthifoline and nandinine, respectively, in order to generate a branched stylopine synthesis pathway. […] CYP719s PsCFS and EX101, capable of converting >98% of scoulerine to cheilanthifoline and nandinine, respectively, were incubated with scoulerine. After 16 h, cells were pelleted and the supernatant fraction was collected. The supernatant was then applied to fresh yeast strains in order to supplement them with either TE containing nandinine or cheilanthifoline as necessary.

The test system of a further data set is cheilanthifoline. The experiment in a line: CYP719 Ring A closure of cheilanthifoline to stylopine in GC1333. The method, then: as §1, §2
Another data set relates to scoulerine. The experiment in a line: CYP719s in GC1316 (integrated PsCPR and PsCFS) supplemented with scoulerine. The conditions noted are these: CYP719 expressed with PsCFS and PsCPR. From the text: Plasmids harboring CYP719s were transformed into either GC1333 containing an integrated PsCPR (FIG. 10A) or GC1316 containing an integrated PsCPR and an integrated PsCFS (FIG. 10B). Strain GC1333, harboring PsCPR integrated into the chromosome, was transformed with pBOT plasmids, with GFP removed, harboring individual CYP719s (CYP719 EX41-105). (See Tables 7-8 below presenting the nature and activity of these CYP719s).
Plasmids harboring individual CYP719s were transformed into strain GC1316, which harbored PsCPR and PsCFS integrated into the genome. Strains were supplemented with scoulerine and after 16 hours total BIAs were extracted and the molar ratio was compared (FIG. 10B). The four possible BIAs that could be extracted were scoulerine, the single Ring A product nandinine, the single Ring B product cheilanthifoline, and the double Ring A, Ring B product stylopine.

These results are taken from US20160340704A1, “METHOD OF MAKING A BENZYLISOQUINOLINE ALKALOID (BIA) METABOLITE, ENZYMES THEREFORE” (VALORBEC SOCIÉTÉ EN COMMANDITE, priority 2014, published 2016).

Where only a bound is given, the exact number is not on record here.

B1: EX98: CYP719 from Stylophorum diphyllum, SEQ ID NO: 377 (protein, listed as Stylophorum diphyllum)
chain: MEESFWLVTATVVVVFVIAKLQFRKSSSISTMEWPAGPKTLPIIGNLHQLGGAALHVVLANLAKAYGSVMTIWVGSWRPMIVISDFDKAWEVLVNKSSDYSARSLPEITRIISANWKNIMTSDSGPFWQNLRKGLQSGALSPHNVMSQYQLQERDMQNLIKTMRVEAFKNNGRIKPLDHLKQETVRLLSRLIFGQDFNDEKLVVGMHHALDDLVRISGYASLADAFKFAENLPSHKKSIREVHELKKRVENLVRPHIVSNPPTNTYLNFLQSQNFSEDLIISAILEVYDLGVDSTASTTVWALTFLVRELKVQEKLYQEIKNLTGGRSTVKVEEVSKMPYLQAVMKETMRMKPIAPMAIPHTAARETSLMGKKIDKGTVVMVNLYAIHHNPNIFPEPYKFMPERFLHGEEQNGGNIKEMEQSLLPFSAGMRICAGMELGKLQLGFALASLVNAFKWECAVDGKLPDMSEDHCFILLMKNPLEAKITPRTH
In the case of B1, the “conversion of nandinine to stylopine” value in the data set on nandinine is reported as above 98%.

B2: EX54: CYP719 from Chelidonium majus, SEQ ID NO: 333 (protein, listed as Chelidonium majus)
chain: MEESFWLVAATVLVVFVVAKLLFRKSSSISTMEWPAGPKTLPIIGNLHQLGGAALHVVLANLAKVYGSVMTIWVGAWRPMIVISDIDKAWEVLVNKSSDYSARSLPEITRIISANWKNIMTSDSGPFWQNLRKGLQGGALSPHNVMSQYQLQERDMQNLIKTMRVEASKNNGRIKPLDHLKQETVRLLSRLIFGQDFNDEKLVVGMHHALDDLVRISGYASLADAFKVAENLPSHKKSIREVHELKRRVENLVRPHIVSNPPTNTYLNFLLSQNFSEDLIISAILEVYDLGVDSTASTTVWALTFLVREQKVQEKLYQEIKNLTGGRSTVKVEEVSKMPYLQAVMKETMRMKPIAPMAIPHTAARETSLMGKKIDKGTVVMVNLYAIHHNPNIFPEPYKFMPERFLHGEEQNGGNIKEMEQSLLPFSAGMRICAGMELGKLQLGFALASLVNAFKWECAADGKLPDLSEDHCFILLMKNPLEAKITPRTH
On to B2, for which the “conversion of nandinine to stylopine” value in the data set on nandinine is above 98%.

B3: EX50: CYP719 from Coptis japonica, Q948Y1.1, SEQ ID NO: 329 (protein, listed as Coptis japonica)
chain: MEMNPLLVCATVAIVFATTTIIRILFSSSSLPQMKWPSGPRKLPIIGNLHQLGDDVLHVALAKLAKVHGSVMTIWIGSWRPVIVISDIEKAWEVLVNKSADYGARDMPEITKIASASWHTISTSDAGSFWQNVRKGLQSGAMGPLNVAAQNQYQERDMKRLIKAMSDEAANNNGIVKPLDHIKKNTVRLLTRLIFGQAFDDNKFIESMHYEIEDIIRISGYARLAEAFYYAKYLPSHKKAEREAFLVKCRVEELVRPLLSSKPPTNSYLYFLLSQNFEEEVIIFCIFELYLLGVDSTSSTTTWALAYLIREQGAQEKLYQDIRMTLGDVDLVKIEDVNKLKYLQGVVKETMRMKPIAPLAIPHKTAKETTLMGTKVAKGTRIMVNLYALHHNQNIWPDPYKFMPERFLEGETGTAYNKAMEQSFLPFSAGMRICAGMDLGKLQFAFALANLVNAFKWSCVEEGKLPDMGEELSFVLLMKTPLEARIAGRNV
B3: the “conversion of cheilanthifoline to stylopine” value in the data set on cheilanthifoline is above 98%. For the same molecule, the residual cheilanthifoline entry in the data set on scoulerine is recorded as “residual cheilanthifoline was detected”.

B4: EX72: CYP719 from Nandina domestica, SEQ ID NO: 351 (protein, listed as Nandina domestica)
chain: MDPMSLWAAIAIVLVMTLLVLLQTRTKSLPSSSTQWPTGPKTLPIIGNLHQLEGDVFHVALAKLAKMHGDIMTIWIGSWRPVIVISDYDKAWEVLVNKSSDYSARDMPEITKIASAGWRTISLSSSGPFWHTLRKGLQNGPFGPLNVSAQILSQERDMRRMIRDMQEEADINGGIVKPLGHLKKATVGLLTRLIFGQNFDDDSFIESIHHETEELIRISGYARLAEAFSYAKYLPSHRRAVKESYECKHRVEELVKPLLSSNPPKNSYLNFLQSQDYPEEVIIFCIFEIYLLGVDSTSSTTTWALAFLIHEPAVQEKLYQEVKCITNGDGGLVKAGDLSKFQYLQAVMKETMRMKPIAPLAIPHTTSKDTTLMGTKVAKGTRIMVNLYALHHNPNIWSEPFKFMPERFLQEQFNGVGGDANVKAIEQSFLPFSAGMRICAGMDLGKLQFSFALANLVNAFKWTTVADGKFPDMNEELSFVLLMKTPLEARIVPRKP
Consider B4, for which the residual cheilanthifoline result with scoulerine was “residual cheilanthifoline was detected”.

B5: EX60: CYP719 from Eschscholzia californica, BAG75114.1, SEQ ID NO: 339 (protein, listed as Eschscholzia californica)
chain: MEEMKFLMMNNPWVLTATFTTLLISIFLFVTRKTSNTEWPNGPKTLPIIGNMHLLGGTKALQVILHNLAKVYGGVMTIWIGSWRPVIIVSDIERAWEVLVNKSSDYSARELPEIIKYNAANFRTIATCDSGPHWSNLRKGLQNVALSPHNLAAQFQFQEKDITKMIQNLEVEAKNNNGIVQPLDHLKKATIRLISRLIFGQDFDEDTYVEKLHHTIDELIRMSGYAQLAEAFYYARYLPNHKKAVNHAAKTKQIVTHLMRPFLSLNPPTNSYLHFLQSQNYDEELIIFSIFEVYLLGVDSTSSTTAWALAYLVREPNVQETLYQELDNFAKQNDRKILKVEDINKLQYLQAVTKETMRMKPIAPLAIPHKASRDTTLMGKKVEKGTKVMVNLHALHHNENVFNDPYKFMPERFLKSYQGAKAKAMEQSYLPFSAGMRICGGMEVGKLQFGFALANLAYAFKWSCAVNGVLPDMSDELGFVLFMKTPLEARIVRRN
As to B5, the residual cheilanthifoline result in the data set with scoulerine was “residual cheilanthifoline was detected”.
